# In patent publication US20090285798A1 (COMMISSARIAT A L ENERGIE ATOMIQUE, published 2009):
# Columns and labels:
# [1] = molecular target: HIV-1 isolate 714 envelope (HIV-1); assay: cell-based or functional assay
# [2] = molecular target: HIV-1 isolate 6393 envelope (HIV-1); assay: cell-based or functional assay
# [3] = molecular target: HIV-1 isolate 77 envelope (HIV-1); assay: cell-based or functional assay
# BaL virus envelope [4] = molecular target: BaL virus envelope (HIV-1 groupM); assay: cell-based or functional assay
# NL4.3 env = NL4.3 env (HIV-1 groupM); assay: cell-based or functional assay
# Mn pseudovirus envelope = Mn pseudovirus envelope (HIV-1, UniProt P05877 32-856); assay: cell-based or functional assay
# [5] = molecular target: VI829 pseudovirus envelope (HIV-1); assay: cell-based or functional assay
# [6] = molecular target: VI1358 pseudovirus envelope (HIV-1); assay: cell-based or functional assay
# [7] = molecular target: SF162 pseudovirus envelope (HIV-1, UniProt P19550 32-847); assay: cell-based or functional assay
# MJ4 pseudovirus envelope = MJ4 pseudovirus envelope (HIV-1); assay: cell-based or functional assay
# [8] = molecular target: CA10-3 pseudovirus envelope (HIV-1); assay: cell-based or functional assay
# BaL virus envelope [9] = molecular target: BaL virus envelope (HIV-1 groupM); assay: cell-based or functional assay; remark: listed apart in the source
# gp120SF162 [10] = molecular target: T1, gp120SF162 (HIV-1, UniProt P19550 32-502); assay: fluorescence polarization competition: 6 nM gp120SF162, 1 nM fluorescein-CD4M33
# T1 construct: domain: gp120
# Source text: (§1) Binding assays by fluorescence anisotropy were made in a LJL Analyst (LJL BIOSYSTEMS) microplate reader using 384-wells plates.
# gp120SF162 [11] = molecular target: T1, gp120SF162; assay: competitive ELISA, IC50 values of Table III (largest ratio falls on gp120SF162)
# Procedure: Competition binding assays in ELISA were performed in 96-wells plates (MAXISORB). Briefly, 50 ng per well of antibody D7324 (AALTO BIO REAGENTS) were coated overnight at 4° C.
# gp120 IIIB [12] = molecular target: T2, gp120 IIIB (HIV-1); assay: fluorescence anisotropy, Alexa-488-labelled mini-protein (0.5 nM) titrated with gp120 in solution
# T2 construct: domain: gp120
# Procedure: as §1
# (§2) Direct binding assays of fluorescent peptides were performed in triplicates by adding 10 μL of 0.5 nM Alexa-labeled mini-proteins and 10 μL of serial dilutions (two-thirds dilutions in 16 wells, starting at 200 nM) of gp120 SF2, SF162, BaL, IIIB and YU2. Collected data were fitted to the following equation using a non-linear regression program (Prism, GraphPad software Inc.):
# gp120 Bal [13] = molecular target: T3, gp120 Bal (HIV-1); assay: as above
# T3 construct: domain: gp120
# Procedure: as §1, §2
# gp120SF162 [14] = molecular target: T1, gp120SF162; assay: fluorescence anisotropy, ratio of the Kd values of Table I (upper end falls on SF162)
# gp120 SF2 [15] = molecular target: T4, gp120 SF2 (HIV-1, UniProt P03378 32-509); assay: fluorescence anisotropy, ratio of the Kd values of Table I (lower end falls on SF2)
# T4 construct: domain: gp120
# gp120 IIIB [16] = molecular target: T2, gp120 IIIB; assay: fluorescence anisotropy, 0.5 nM CD4M47-F titrated with gp120
# gp120YU2 = molecular target: T5, gp120YU2 (HIV-1, UniProt P35961 32-498); assay: as above
# T5 construct: domain: gp120
# gp120SF162 [17] = molecular target: T1, gp120SF162; assay: as above
# gp120 SF2 [18] = molecular target: T4, gp120 SF2; assay: as above
# gp120 Bal [19] = molecular target: T3, gp120 Bal; assay: as above
# gp120 Bal [20] = molecular target: T3, gp120 Bal; assay: fluorescence anisotropy, ratio of the Kd values of Table I (lower end falls on Bal)
Binder,"IC50, acute HIV-1 infection of PM1 cells (p24, day 5) [3] [nM]","IC50, HIV-1 infection of PBMC (p24, day 12) (NL4.3 env) [nM]","EC50, single-cycle HIV-1 pseudovirus infection of GHOST cells (luciferase) (Mn pseudovirus envelope) [nM]","EC50, single-cycle HIV-1 pseudovirus infection of GHOST cells (luciferase) [5] [nM]","EC50, single-cycle HIV-1 pseudovirus infection of GHOST cells (luciferase) [6] [nM]","EC50, single-cycle HIV-1 pseudovirus infection of GHOST cells (luciferase) [7] [nM]","EC50, single-cycle HIV-1 pseudovirus infection of GHOST cells (luciferase) (MJ4 pseudovirus envelope) [nM]","EC50, single-cycle HIV-1 pseudovirus infection of GHOST cells (luciferase) [8] [nM]","EC50, single-cycle HIV-1 pseudovirus infection of GHOST cells (luciferase) (BaL virus envelope [9]) [nM]",IC50 (read off the curve) (gp120SF162 [10]) [nM],further results
"XNLHFCQLRCKSLGLLGRCAXTFCACV (not fully specified; N-terminal thiopropionic acid (TPA) at position 1; (D)Pro at 21; C-terminal amide, optimized mini-protein, Phe at 23; unlabelled monomer; also called B4T) [CD4M48]",250,0.44,4,755,57,5,> 3300,63,77,~3,"IC50, acute HIV-1 infection of PM1 cells (p24, day 5) [1]: 670 nM; IC50, acute HIV-1 infection of PM1 cells (p24, day 5) [2]: 95 nM; IC50, acute HIV-1 infection of PM1 cells (p24, day 5) (BaL virus envelope [4]): 185 nM; IC50, HIV-1 infection of MT-4 cells (MTS viability, day 5) (NL4.3 env): 2.6 nM"
XNLHFCQLRCKSLGLLGRCAXTFCACV (not fully specified; N-terminal thiopropionic acid (TPA) at position 1; (D)Pro at 21; C-terminal amide; Lys11 carries a hydrazino group ligated to heparin mono-aldehyde) [CD4M48-heparin],< 4,< 80,–,–,–,–,–,–,–,–,"IC50, acute HIV-1 infection of PM1 cells (p24, day 5) (BaL virus envelope [4]): 850 nM; IC50, HIV-1 infection of MT-4 cells (MTS viability, day 5) (NL4.3 env): 112 nM"
XNLHFCQLRCKSLGLLGRCAXTXCACV (not fully specified; N-terminal thiopropionic acid (TPA) at position 1; (D)Pro at 21; para-cyclo-pentylethoxyphenylalanine (U2) at 23; C-terminal amide) [CD4M48_U2],–,–,0.08,98,42,1.6,773,3.6,4,–,fold enhanced affinity compared to CD4M47 (gp120SF162 [11]): ≤ 3 fold
"XNLHFCQLRCKSLGLLGRCAXTFCACV (not fully specified; N-terminal thiopropionic acid (TPA) at position 1; (D)Pro at 21; C-terminal amide; Lys11 carries a mercapto group ligated to a maleimido group of a polylysine construct with 50 Å PEGylated linkers, dimer of CD4M48-SH on a polylysine construct) [CD4M48D50]",–,–,–,–,–,–,–,–,–,~1,–
"XNLHFCQLRCKSLGLLGRCAXTFCACV (not fully specified; N-terminal thiopropionic acid (TPA) at position 1; (D)Pro at 21; C-terminal amide; Alexa-488 on Lys11, also called CD4M48-F1; Alexa 488-labeled CD4M48) [Alexa labeled mini-protein CD4M48]",–,–,–,–,–,–,–,–,–,–,Kd (gp120 IIIB [12]): 0.982 nM; Kd (gp120 Bal [13]): 5.46 nM; factor by which the Kd is smaller than that of CD4M33 (gp120SF162 [14]): 6.1 fold; factor by which the Kd is smaller than that of CD4M33 (gp120 SF2 [15]): 1.1 fold
"XNLHFCQLRCKSLGLLGRCAXTXCACV (not fully specified; N-terminal thiopropionic acid (TPA) at position 1; (D)Pro at 21; biphenylalanine (Bip) at 23; C-terminal amide; Alexa-488 on Lys11, also called CD4M47-F; CD4M47-F1) [Alexa labeled mini-protein CD4M47]",–,–,–,–,–,–,–,–,–,–,Kd (gp120 IIIB [12]): 0.589 nM; Kd (gp120 Bal [13]): 1.22 nM; EC50 (read off the curve) (gp120 IIIB [16]): ~0.9 nM; EC50 (read off the curve) (gp120YU2): ~3 nM; EC50 (read off the curve) (gp120SF162 [17]): ~0.3 nM; EC50 (read off the curve) (gp120 SF2 [18]): ~0.3 nM; EC50 (read off the curve) (gp120 Bal [19]): ~1 nM; fold improvement of affinity over CD4M33 (gp120SF162 [14]): 5.2 to 12.3 fold; fold improvement of affinity over CD4M33 (gp120 Bal [20]): 5.2 to 12.3 fold
XNLHFCQLRCKSLGLLGRCAXTXCACV (not fully specified; N-terminal thiopropionic acid (TPA) at position 1; (D)Pro at 21; para-cyclo-hexylmethoxyphenylalanine (U1) at 23; C-terminal amide) [CD4M48_U1],–,–,0.07,11,5,0.65,87,0.3,2,–,–
"XNLHFCQLRCKSLGLLGRCAXTFCACV (not fully specified; N-terminal thiopropionic acid (TPA) at position 1; (D)Pro at 21; C-terminal amide; Lys11 carries a mercapto group ligated to a maleimido group of a polylysine construct with 100 Å PEGylated linkers, tetramer of CD4M48-SH on a polylysine construct) [CD4M48T100]",< 4,1.3,–,–,–,–,–,–,–,~2,–
"XNLHFCQLRCKSLGLLGRCAXTFCACV (not fully specified; N-terminal thiopropionic acid (TPA) at position 1; (D)Pro at 21; C-terminal amide; Lys11 carries a mercapto group ligated to a maleimido group of a polylysine construct with 100 Å PEGylated linkers, dimer of CD4M48-SH on a polylysine construct) [CD4M48D100]",3,< 1.8,–,–,–,–,–,–,–,~2,–
XNLHFCQLRCKSLGLLGKCAGSXCACV (not fully specified; biphenylalanine (Bip) at 23; Alexa-488 on Lys11) [Alexa labeled mini-protein CD4M33],–,–,–,–,–,–,–,–,–,–,Kd (gp120 IIIB [12]): 3.81 nM; Kd (gp120 Bal [13]): 6.36 nM
"XNLHFCQLRCKSLGLLGRCAXTFCACV (not fully specified; N-terminal thiopropionic acid (TPA) at position 1; (D)Pro at 21; C-terminal amide; Lys11 carries a mercapto group ligated to a maleimido group of a polylysine construct with 50 Å PEGylated linkers, tetramer of CD4M48-SH on a polylysine construct) [CD4M48T50]",–,–,–,–,–,–,–,–,–,~1,–
XNLHFCQLRCKSLGLLGRCAXTXCACV (not fully specified; N-terminal thiopropionic acid (TPA) at position 1; (D)Pro at 21; Phe(para-[phenyl-ethoxy]) (U3) at 23; C-terminal amide) [CD4M48_U3],–,–,0.13,950,364,2,> 3270,29,67,–,–
XNLHFCQLRCKSLGLLGRCAXTXCACV (not fully specified; N-terminal thiopropionic acid (TPA) at position 1; (D)Pro at 21; biphenylalanine (Bip) at 23; C-terminal amide) [CD4M47],–,–,1,1200,579,22,> 3410,91,108,–,–
